Target: the molecule itself
Test: cross-linking

B1: isolated TIM barrel domain of Mycobacterium tuberculosis α-isopropylmalate synthase (Arg47 to Phe457) (domain or fragment)
chain: RPFAEEVEPIRLRNRTWPDRVIDRAPLWCAVDLRDGNQALIDPMSPARKRRMFDLLVRMGYKEIEVGFPSASQTDFDFVREIIEQGAIPDDVTIQVLTQCRPELIERTFQACSGAPRAIVHFYNSTSILQRRVVFRANRAEVQAIATDGARKCVEQAAKYPGTQWRFEYSPESYTGTELEYAKQVCDAVGEVIAPTPERPIIFNLPATVEMTTPNVYADSIEWMSRNLANRESVILSLHPHNDRGTAVAAAELGFAAGADRIEGCLFGNGERTGNVCLVTLGLNLFSRGVDPQIDFSNIDEIRRTVEYCNQLPVHERHPYGGDLVYTAFSGSHQDAINKGLDAMKLDADAADCDVDDMLWQVPYLPIDPRDVGRTYEAVIRVNSQSGKGGVAYIMKTDHGLSLPRRLQIEF
notes: also called catalytic TIM barrel domain; Band I; not shown: histidine tag, N-terminal, cleaved
  stoichiometry N: 2
